Laboratory results taken from patent publication US7595158B2, “Bcl2L12 polypeptide activators and inhibitors” (Dana-Farber Cancer Institute, Inc., priority 2003, dated 2009).

Assays:
[1] = test system: Erk1 and Erk2; assay: Phosphorylation of Erk1/2 (p44/p42) in transfected astrocytes; type: cell-based; details: vs control cells expressing LacZ
Procedure: (§1) Ink4a/Arf deficient astrocytes transfected with a vector encoding either LacZ, Bcl2L12-V5, or EGFR* polypeptides were cultured for six days. Each day, the number of cells in each culture was determined. In addition, stably transfected cells were harvested and assessed for the phosphorylation of Erk1/2 (p44/p42).

[2] = test system: Ink4a/Arf deficient astrocytes; assay: Cell growth of transfected Ink4a/Arf deficient astrocytes over six days; type: cell-based, mouse; details: LacZ about 1.5×10^6 cells
Procedure: as §1

[3] = test system: caspases 3 and 7; assay: Western blot of procaspase maturation in STS-treated Ink4a/Arf deficient astrocytes; type: cell-based, mouse; details: STS 1 μM, 0-16 hours
Procedure: In another experiment, Ink4a/Arf deficient astrocytic cell cultures ectopically expressing the Bcl2L12-V5 polypeptide or containing pBabe were treated with STS (1 μM) for 0, 2, 4, 8, or 16 hours. Cell lysates were analyzed by Western blotting using anti-caspase-9 antibodies (1:1000; Cell Signaling), anti-caspase-7 antibodies (0.5 μg/ml; BD Pharmingen), anti-caspase-3 antibodies (0.25 μg/ml; BD Transduction Laboratories), anti-cleaved caspase-9 antibodies (1:1000; Cell Signaling), anti-cleaved capase-7 antibodies (1:1000; Calbiochem), and anti-cleaved caspase-3 antibodies (1:1000; Calbiochem).

[4] = test system: p53 mediated transcription; assay: p53 luciferase reporter (PG13) in Ink4a/Arf deficient astrocytes; type: cell-based; details: normalized to βGal, vs vector control
Text: Activation of the p53 transcription factor in response to a variety of cellular stresses, including DNA damage and oncogene activation, initiates a program of gene expression that blocks the proliferative expansion of damaged cells. To asses the effect of Bcl2L12 polypeptides on p53 mediated transcription, Ink4a/Arf deficient astrocytes ectopically expressing a Bcl2L12-V5 polypeptide were transfected with increasing amounts of nucleic acid encoding a p53 polypeptide and a luciferase construct bearing a dimerized p53 binding site in its promoter (PG13).

[5] = test system: astrocytes; assay: Mitochondrial membrane potential (JC-1, FACS) in STS-treated astrocytes; type: cell-based
Text: Like nuclear swelling and plasma membrane integration, a loss of the mitochondrial membrane potential is a hallmark of […]. To determine the dissipation of ΔΨM, STS treated astrocytes transfected with either vector only (pBabe) or a vector encoding a Bcl2L12-V5 polypeptide were stained with JC-1, and cells with an increase in fluorescence (FL-1) were quantified using FACS analysis. JC-1 (5,5′,6,6′-tetrachloro-1,1′,3,3′-tetraethylbenzimidazolylcarbocyanine iodide) is a green-fluorescent probe that exists as a monomer at low concentrations or at low membrane potential. […] Thus, the emission of this cyanine dye can be used as a sensitive measure of mitochondrial membrane potential.

[6] = test system: Ink4a/Arf deficient astrocytic cell cultures; assay: Nuclear swelling (Nicoletti method) in Ink4a/Arf deficient astrocytes; type: cell-based, mouse; details: STS 500 nM 24 hours; vector only about 42 percent
Procedure: To quantify nuclear swelling in Ink4a/Arf deficient astrocytic cell cultures, cells transfected with vector only or a vector encoding a Bcl2L12-V5 polypeptide were treated with or without STS (500 nM) for 24 hours, lysed, and stained with Propidium Iodide (Nicoletti method). Nuclei with increased forward scatter (i.e., increased size) were defined as swollen, and the number of those nuclei relatively to the total number of nuclei was expressed as the percent swelling.

[7] = test system: Ink4a-/-/Arf-/- astrocytes; assay: Growth of transduced Ink4a-/-/Arf-/- astrocytes under normal and low-serum conditions; type: cell-based, mouse
Text: The Bcl2L12-V5, R-RAS, and IRF3 nucleic acid sequences were cloned into expression vectors. Controls included expression vectors containing EGFR or Bcl2 nucleic acid sequences. The encoded polypeptides were expressed in primary astrocytes and tested for cell growth, transformation, and apoptosis activities. Primary astrocytes deficient for Ink4a/Arf (e.g., Ink4a^−/−/Arf^−/− astrocytes) were used given the prominence of this tumor suppressor lesion in advanced human gliomas. The following was performed to assess growth characteristics under normal growth conditions. Mouse Ink4a^−/−/Arf^−/− astrocytes were retro-virally transduced with pBabe vector alone; Bcl2L12-V5 nucleic acid; R-RAS nucleic acid; IRF3 nucleic acid; EGFR* nucleic acid; or Bcl2 nucleic acid. After retro-viral infection, transduced mouse Ink4a^−/−/Arf^−/− astrocytes were subjected to puromycin (2 μg/mL) selection for four days and plated at a density of 1×10^5 cells/10 cm dish using 10% FBS-DMEM medium. All transduced Ink4a^−/−/Arf^−/− astrocytes were counted each day for five days to determine cell numbers (mean±S.D.; three independent experiments with each being performed in triplicate).
The following was performed to assess growth characteristics under low-serum growth conditions. Retro-virally transduced mouse Ink4a^−/−/Arf^−/− astrocytes (1×10^6 cells/10 cm dish) were allowed to attach onto plates in 10% FBS-DMEM medium for five hours. After five hours, the medium was changed to 0.1% FBS-DMEM, and the cells were allowed to grow for three days. After three days in 0.1% FBS, the cells were counted to determine cell numbers (mean±S.D.; three independent experiments with each being performed in triplicate). The number of Ink4a^−/−/Arf^−/− astrocytes infected with pBabe-vector was set to 1.0.

[8] = test system: Ink4a/Arf deficient astrocytes; assay: Colony formation of Ink4a/Arf deficient astrocytes after gamma-irradiation; type: cell-based, mouse; details: γ-irradiated 5 Gy, ten days, 1000 cells/10 cm dish; vector only about 17
Procedure: The ability of Bcl2L12 polypeptide to promote colony formation was assessed. Briefly, 1000 cells were seeded in a 10 cm dish and γ-irradiated (5 Gy). After culturing the irradiated cells for ten days, the cells were stained with crystal violet, and the number of colonies was counted. Bcl2L12-V5 polypeptide expression promoted colony formation in Ink4a/Arf deficient astrocytes upon γ-irradiation (about 27 colonies for cells expressing Bcl2L12-V5 polypeptides compared to about 17 colonies for control vector only cells; 1000 cells/10 cm dish).

[9] = test system: Ink4a-/-/Arf-/- astrocytes; assay: Annexin V staining of STS-treated Ink4a/Arf deficient astrocytes (FACS); type: cell-based, mouse
Procedure: The following experiments were performed to determine whether the Bcl2L12 polypeptide influenced cell survival or apoptosis. Ink4a^−/−/Arf^−/− astrocytes retro-virally infected with vector alone (pBabe) or vector containing Bcl2 nucleic acid, Bcl2L12-V5 nucleic acid, R-RAS nucleic acid, or IRF3 nucleic acid were […] After this one day incubation, the cells were stained with annexin V (Roche). Annexin V-positive cells were determined by FACScan analysis (mean±S.D.; three independent experiments with each being performed in triplicate).
After STS treatment, the cells were analyzed for apoptosis by assessing annexin V binding and DNA fragmentation using a FACS based analysis.

B1: Bcl2L12-V5: Bcl2L12 polypeptide having the V5 epitope tag, ectopically expressed from pBabe-Bcl2L12-V5 vector; human amino acid sequence 1-334 (protein)
chain: MGRPAGLFPPLCPFLGFRPEACWERHMQIERAPSVPPFLRWAGYRPGPVRRRGKVELIKFVRVQWRRPQVEWRRRRWGPGPGASMAGSEELGLREDTLRVLAAFLRRGEAAGSPVPTPPRSPAQEEPTDFLSRLRRCLPCSLGRGAAPSESPRPCSLPIRPCYGLEPGPATPDFYALVAQRLEQLVQEQLKSPPSPELQGPPSTEKEAILRRLVALLEEEAEVINQKLASDPALRSKLVRLSSDSFARLVELFCSRDDSSRPSRACPGPPPPSPEPLARLALAMELSRRVAGLGGTLAGLSVEHVHSFTPWIQAHGGWEGILAVSPVDLNLPLD
modifications: left off: small tags and cut ends
[1]
  levels of Erk1 and Erk2 phosphorylation: higher
[2]
  cell number on day 6: about 3.8×10^6 cells
[3]
  maturation of effector caspases: significant reduction of the maturation of effector caspases 3 and 7
[4]
  transcriptional activity of p53 (reporter activity): marked decrease of transcriptional activity
[5]
  dissipated mitochondrial membrane potential: marked increase in the dissipated membrane potential
[6]
  swelling (nuclei): about 67%
[7]; 0.1% FBS, three days, vs pBabe
  resistance to growth inhibition by low serum culture: significantly resistant to growth inhibition
[7]; over-expression, 10% FBS, vs vector only
  growth / proliferation under normal growth conditions: significant increase in growth
[8]
  number of colonies: about 27 colonies
[9]; 100 nM staurosporine one day, control cultures about 17-22 percent
  annexin-V positive cells: 6-7%
[9]; 500 nM STS, pBabe about 20 percent
  annexin V+/PI- cells: about 6%
